Results: patent publication US20240400638A1, “COMBINATION OF RELAXIN AND VASOPRESSIN ANALOGUES FOR TREATMENT OF RENAL DISORDERS OR CONDITIONS” (River 2 Renal Corp., priority 2021, published 2024)
Each block holds one binder with its values, some of them ahead of it. Numbered stars: 1 amine (or outer) side, 2 acyl side, 3 side chain; on linkers, the order of the positions; unused ones are H or OH. Square brackets hold non-standard residues; d marks the D form. Side chains are listed from the residue outwards. * marks the point of attachment. TTDS = 4-[3-[2-[2-(3-aminopropoxy)ethoxy]ethoxy]propylamino]-4-oxo-butanoyl; γGlu = O=C(O)[C@H](CCC(=O)[*:2])N[*:1]; Stearoyl = CCCCCCCCCCCCCCCCCC(=O)*; Palmitoyl = CCCCCCCCCCCCCCCC(=O)*; Cit = NC(=O)NCCC[C@H](N)C(=O)O; αMeK = C[C@](N)(CCCCN)C(=O)O; hLys = NCCCCC[C@H](N)C(=O)O; AEEA = NCCOCCOCC(=O)O; Aib = CC(C)(N)C(=O)O

How the values were obtained:
human RXFP1 [1] = target: T1, human RXFP1 (human, UniProt Q9HBX9 1-757); experiment: cell-based or functional assay
T1 sequence (looked up): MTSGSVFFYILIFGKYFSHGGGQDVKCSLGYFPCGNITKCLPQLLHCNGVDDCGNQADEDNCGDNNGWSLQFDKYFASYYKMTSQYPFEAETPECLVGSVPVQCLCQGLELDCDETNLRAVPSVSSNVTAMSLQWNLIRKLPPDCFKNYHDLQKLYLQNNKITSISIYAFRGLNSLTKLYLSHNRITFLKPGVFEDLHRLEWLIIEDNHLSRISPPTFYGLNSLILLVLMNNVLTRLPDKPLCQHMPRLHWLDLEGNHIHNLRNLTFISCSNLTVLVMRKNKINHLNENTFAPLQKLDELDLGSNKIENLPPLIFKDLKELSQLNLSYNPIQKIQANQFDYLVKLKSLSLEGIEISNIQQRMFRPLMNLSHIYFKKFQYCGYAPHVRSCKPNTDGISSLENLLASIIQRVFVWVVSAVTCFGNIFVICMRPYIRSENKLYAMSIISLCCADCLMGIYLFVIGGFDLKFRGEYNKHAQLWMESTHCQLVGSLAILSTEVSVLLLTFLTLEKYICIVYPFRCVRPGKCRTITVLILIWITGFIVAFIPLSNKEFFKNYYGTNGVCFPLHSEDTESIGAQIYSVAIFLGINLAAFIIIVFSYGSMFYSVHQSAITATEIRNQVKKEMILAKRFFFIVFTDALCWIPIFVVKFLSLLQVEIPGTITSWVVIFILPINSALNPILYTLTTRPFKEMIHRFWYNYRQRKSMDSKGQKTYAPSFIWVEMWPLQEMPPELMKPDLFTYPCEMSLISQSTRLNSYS

human RXFP1 [2] = target: T1, human RXFP1; experiment: cell-based or functional assay; remark: listed apart in the source

EC50 (nM), OVCAR 5 cells (cAMP) (human RXFP1 [1]): 8.7 nM | EMax, OVCAR 5 cells (cAMP) (human RXFP1 [1]): 93%
Binder: Ac-LEGREFVRAK(Ac)I[Aib][Aib]EGK([TTDS-TTDS-TTDS-γGlu-γGlu-γGlu-Palmitoyl])STWS[Aib]RRK(Ac)-NH2 [Relaxin peptide analogue of SEQ ID NO: 39]

EC50 (nM), OVCAR 5 cells (cAMP) (human RXFP1 [1]): 0.16 nM | EMax, OVCAR 5 cells (cAMP) (human RXFP1 [1]): 96%
Binder: Ac-LEGREKVRAK(Ac)I[Aib][Aib]EGK([TTDS-TTDS-γGlu-γGlu-γGlu-γGlu-Stearoyl])STWS[Aib]RKK(Ac)-NH2 [Relaxin peptide analogue of SEQ ID NO: 54]

EC50 (nM), OVCAR 5 cells (cAMP) (human RXFP1 [1]): 0.45 nM | EMax, OVCAR 5 cells (cAMP) (human RXFP1 [1]): 96%
Binder: Ac-LEGREKVRAQI[Aib][Aib]EGK([TTDS-TTDS-TTDS-γGlu-γGlu-γGlu-Palmitoyl])STFS[αMeK]RAK(Ac)-NH2 [Relaxin peptide analogue of SEQ ID NO: 48]

EC50 (nM), cAMP assay in OVCAR 5 cells (human RXFP1 [2]): 929 nM | Emax, cAMP assay in OVCAR 5 cells (human RXFP1 [2]): 70%
Binder: Ac-VIKLSGRELVRAQIAISGMSTWSKRSL-NH2 [AcB7-33 C11.23S]

EC50 (nM), OVCAR 5 cells (cAMP) (human RXFP1 [1]): 0.1 nM | EMax, OVCAR 5 cells (cAMP) (human RXFP1 [1]): 98%
Binder: Ac-LEGREKVRAK(Ac)I[Aib][Aib]EGK([TTDS-TTDS-TTDS-γGlu-γGlu-γGlu-γGlu-Stearoyl])STWS[Aib]RKK(Ac)-NH2 [Relaxin peptide analogue of SEQ ID NO: 51]

EC50 (nM), OVCAR 5 cells (cAMP) (human RXFP1 [1]): 1.5 nM | EMax, OVCAR 5 cells (cAMP) (human RXFP1 [1]): 84%
B2: Relaxin peptide analogue of SEQ ID NO: 42 (peptide)
peptide: Ac-LEGREKVRAK(Ac)I[Aib][Aib]EGK([AEEA-AEEA-AEEA-AEEA-γGlu-γGlu-γGlu-Palmitoyl])STWS[αMeK]RAK(Ac)-NH2
SMILES: CCCCCCCCCCCCCCCC(=O)N[C@@H](CCC(=O)N[C@@H](CCC(=O)N[C@@H](CCC(=O)NCCOCCOCC(=O)NCCOCCOCC(=O)NCCOCCOCC(=O)NCCOCCOCC(=O)NCCCC[C@H](NC(=O)CNC(=O)[C@H](CCC(=O)O)NC(=O)C(C)(C)NC(=O)C(C)(C)NC(=O)[C@@H](NC(=O)[C@H](CCCCNC(C)=O)NC(=O)[C@H](C)NC(=O)[C@H](CCCNC(=N)N)NC(=O)[C@@H](NC(=O)[C@H](CCCCN)NC(=O)[C@H](CCC(=O)O)NC(=O)[C@H](CCCNC(=N)N)NC(=O)CNC(=O)[C@H](CCC(=O)O)NC(=O)[C@H](CC(C)C)NC(C)=O)C(C)C)[C@@H](C)CC)C(=O)N[C@@H](CO)C(=O)N[C@H](C(=O)N[C@@H](Cc1c[nH]c2ccccc12)C(=O)N[C@@H](CO)C(=O)N[C@@](C)(CCCCN)C(=O)N[C@@H](CCCNC(=N)N)C(=O)N[C@@H](C)C(=O)N[C@@H](CCCCNC(C)=O)C(N)=O)[C@@H](C)O)C(=O)O)C(=O)O)C(=O)O

EC50 (nM), OVCAR 5 cells (cAMP) (human RXFP1 [1]): 2.33 nM | EMax, OVCAR 5 cells (cAMP) (human RXFP1 [1]): 91%
Binder: Ac-LEGREKVRAK(Ac)I[Aib][Aib]EGK([TTDS-TTDS-TTDS-γGlu-γGlu-γGlu-Palmitoyl])STW[Aib]KRAK(Ac)-NH2 [Relaxin peptide analogue of SEQ ID NO: 35]

EC50 (nM), OVCAR 5 cells (cAMP) (human RXFP1 [1]): 0.44 nM | EMax, OVCAR 5 cells (cAMP) (human RXFP1 [1]): 98%
Binder: Ac-LEGREKVRAK(Ac)I[Aib][Aib]EGK([TTDS-TTDS-TTDS-γGlu-γGlu-γGlu-Palmitoyl])STWS[hLys]RAK(Ac)-NH2 [Relaxin peptide analogue of SEQ ID NO: 57]

EC50 (nM), OVCAR 5 cells (cAMP) (human RXFP1 [1]): 0.15 nM | EMax, OVCAR 5 cells (cAMP) (human RXFP1 [1]): 91%
Binder: Ac-LEGREKVRA[Cit]I[Aib][Aib]EGK([TTDS-TTDS-TTDS-γGlu-γGlu-γGlu-Stearoyl])STFS[αMeK]RAK(Ac)-NH2 [Relaxin peptide analogue of SEQ ID NO: 56]

EC50 (nM), OVCAR 5 cells (cAMP) (human RXFP1 [1]): 5.6 nM | EMax, OVCAR 5 cells (cAMP) (human RXFP1 [1]): 98%
Binder: Ac-LEGRELVRAK(Ac)I[Aib][Aib]EGK([TTDS-TTDS-TTDS-γGlu-γGlu-γGlu-Palmitoyl])STWS[Aib]RRK(Ac)-NH2 [Relaxin peptide analogue of SEQ ID NO: 37]

Second part, the binder before the results:

Binder: Ac-LEGREKVRAK(Ac)I[Aib][Aib]EGK([TTDS-TTDS-TTDS-γGlu-γGlu-γGlu-Palmitoyl])STW[dS]KRAK(Ac)-NH2 [Relaxin peptide analogue of SEQ ID NO: 44]
EC50 (nM), OVCAR 5 cells (cAMP) (human RXFP1 [1]): 2.2 nM | EMax, OVCAR 5 cells (cAMP) (human RXFP1 [1]): 97%

Binder: Ac-LEGREKVRAK(Ac)I[Aib][Aib]EGK([TTDS-TTDS-γGlu-γGlu-γGlu-Stearoyl])STFS[αMeK]RAK(Ac)-NH2 [Relaxin peptide analogue of SEQ ID NO: 34]
EC50 (nM), OVCAR 5 cells (cAMP) (human RXFP1 [1]): 0.14 nM | EMax, OVCAR 5 cells (cAMP) (human RXFP1 [1]): 90%

Binder: H-VIKLSGRELVRAQIAISGMSTWSKRSL-NH2 [B7-33 C11.23S]
EC50 (nM), cAMP assay in OVCAR 5 cells (human RXFP1 [2]): 1640 nM | Emax, cAMP assay in OVCAR 5 cells (human RXFP1 [2]): 90%

Binder: Ac-VIKLSGRELVRAQIAISGMSTWSKKKK-NH2 [KKKK(AcB7-29 C11.23S)]
EC50 (nM), cAMP assay in OVCAR 5 cells (human RXFP1 [2]): 206 nM | Emax, cAMP assay in OVCAR 5 cells (human RXFP1 [2]): 84%

Binder: Ac-LEGREKVRAK(Ac)I[Aib][Aib]EGK([TTDS-TTDS-TTDS-γGlu-γGlu-γGlu-Palmitoyl])STFS[dK]RAK(Ac)-NH2 [Relaxin peptide analogue of SEQ ID NO: 36]
EC50 (nM), OVCAR 5 cells (cAMP) (human RXFP1 [1]): 3.6 nM | EMax, OVCAR 5 cells (cAMP) (human RXFP1 [1]): 93%

B1: Relaxin peptide analogue of SEQ ID NO: 45 (peptide)
peptide: Ac-LEGREKVRAK(Ac)I[Aib][Aib]EGK([AEEA-AEEA-AEEA-AEEA-AEEA-γGlu-γGlu-γGlu-Palmitoyl])STFS[αMeK]RAK(Ac)-NH2
SMILES: CCCCCCCCCCCCCCCC(=O)N[C@@H](CCC(=O)N[C@@H](CCC(=O)N[C@@H](CCC(=O)NCCOCCOCC(=O)NCCOCCOCC(=O)NCCOCCOCC(=O)NCCOCCOCC(=O)NCCOCCOCC(=O)NCCCC[C@H](NC(=O)CNC(=O)[C@H](CCC(=O)O)NC(=O)C(C)(C)NC(=O)C(C)(C)NC(=O)[C@@H](NC(=O)[C@H](CCCCNC(C)=O)NC(=O)[C@H](C)NC(=O)[C@H](CCCNC(=N)N)NC(=O)[C@@H](NC(=O)[C@H](CCCCN)NC(=O)[C@H](CCC(=O)O)NC(=O)[C@H](CCCNC(=N)N)NC(=O)CNC(=O)[C@H](CCC(=O)O)NC(=O)[C@H](CC(C)C)NC(C)=O)C(C)C)[C@@H](C)CC)C(=O)N[C@@H](CO)C(=O)N[C@H](C(=O)N[C@@H](Cc1ccccc1)C(=O)N[C@@H](CO)C(=O)N[C@@](C)(CCCCN)C(=O)N[C@@H](CCCNC(=N)N)C(=O)N[C@@H](C)C(=O)N[C@@H](CCCCNC(C)=O)C(N)=O)[C@@H](C)O)C(=O)O)C(=O)O)C(=O)O
EC50 (nM), OVCAR 5 cells (cAMP) (human RXFP1 [1]): 0.45 nM | EMax, OVCAR 5 cells (cAMP) (human RXFP1 [1]): 96%

Binder: Ac-LEGREKVRAK(Ac)I[Aib][Aib]EGK([TTDS-TTDS-γGlu-γGlu-γGlu-Palmitoyl])STWS[Aib]RKK(Ac)-NH2 [Relaxin peptide analogue of SEQ ID NO: 4]
EC50 (nM), OVCAR 5 cells (cAMP) (human RXFP1 [1]): 1.5 nM | EMax, OVCAR 5 cells (cAMP) (human RXFP1 [1]): 89%

Binder: Ac-LEGREKVRAKI[Aib][Aib]EGK([TTDS-TTDS-TTDS-γGlu-γGlu-γGlu-Palmitoyl])STFS[αMeK]RAK(Ac)-NH2 [Relaxin peptide analogue of SEQ ID NO: 47]
EC50 (nM), OVCAR 5 cells (cAMP) (human RXFP1 [1]): 0.64 nM | EMax, OVCAR 5 cells (cAMP) (human RXFP1 [1]): 95%

Binder: Ac-LEGREKVRAK(Ac)I[Aib][Aib]EGK([TTDS-TTDS-TTDS-TTDS-γGlu-γGlu-γGlu-Stearoyl])STWS[Aib]RKK(Ac)-NH2 [Relaxin peptide analogue of SEQ ID NO: 58]
EC50 (nM), OVCAR 5 cells (cAMP) (human RXFP1 [1]): 0.08 nM | EMax, OVCAR 5 cells (cAMP) (human RXFP1 [1]): 98%

Binder: Ac-LEGREKVRAK(Ac)I[Aib][Aib]EGK([TTDS-TTDS-TTDS-γGlu-γGlu-γGlu-Palmitoyl])STFS[αMeK]RAK-NH2 [Relaxin peptide analogue of SEQ ID NO: 49]
EC50 (nM), OVCAR 5 cells (cAMP) (human RXFP1 [1]): 0.19 nM | EMax, OVCAR 5 cells (cAMP) (human RXFP1 [1]): 97%
